The subject of this data set is HEK293 cells. It counts as cell-based, human. As to conditions: luminescence from secreted Gluc in supernatant 24 hours after transfection of HEK293 cells; circular RNA encoding Gluc with the named IRES (UTR truncated to 675 nt).

In US20230226096A1 (Orna Therapeutics, Inc., priority 2020, published 2023) one finds Expression data, which are given here for 9 molecules.

B1: Aichivirus DV (nucleic acid, listed as Aichivirus sp.)
DNA: TACTCCATTCAGCTTCTTCGGAACCTGTTCGGAGGAATTAAACGGGCACCCATACACCCCCACCCCCTTTTCTGCAACTTAAGTATGTGTGCTCGTAATCTTGACTCCCACGGAACGGATCGATCCGCTGGAGAACAAACTGCTAGATCCACATCCTCCCTTCCCCTGGGAGGACCCCGGTCCTCCCACATCCTCCCCCCAGCCTGACGTAACACAGGCTGTGTGAAGTCCCCGCGAAAGCTGCTCACGTGGCAATTGTGGGTCCCCCCTTCACCAAGACACCAGGTCTTTCCTCCTTAAGGCTAGCCCCGATGTGTGAATTCACATTGGGCAACTAGTGGTGTCACTGTGCGCTCCCAATCTCGGCCGCGGAGTGCTGTTCCCCAAGCCAAACCCCTGGCCCTTCACTATGTGCCTGGCAAGCATATCTGAGAAGGTGTTCCGCTGTGGCTGCCAGCCTGGTAACAGGTGCCCCAGTGTGCGTAACCTTCTTCCGTCTCCGGACGGTAGTGATTGGTTAAGATTTGGTGTAAGGTTCATGTGCCAACGCCCTGTGCGGGATGAAACCTCTACTGCCCTAGGAATGCCAGGCAGGTACCCCACCTTCGGGTGGGATCTGAGCCTGGGCTAATTGTCTACGGGTAGTTTCATTTCCAATTCTTTTATGTCGGAGTC
In turn, B1 yielded an Expression of 7.79E+07.

B2: Aichivirus KVGH (nucleic acid, listed as Aichivirus sp.)
DNA: TACTCCATTCAGCTTCTTCGGAACCTGTTCGGAGGAATTAAACGGGCACCCATACTCCCCCCCACCCCCCTTTTGTAACTAAGTATGTGTGCTCGTGACCTTGACTCCCACGGAACGGACCGATCCGTTGGTGAACAAACAGCTAGGTCCACATCCTCCTTTCCCCTGGGAGGGTCCCCGCCCTCCCACATCCCCCCCCCAGCCTGACGTGTCACAGGCTGTGTGAAGCCCCCGCGAAAGCTGCTCACGTGGCAATTGTGGGTCCCCCCTTCATCAAGACACCAGGTCTTTCCTCCTTAAGGCTAGCCCCGGCGTGTGAACTCACGTTGGGCAACTAGTGGTGTCACTGTGCGCTCCCAATCTCGGCCGCGGAGTGCTGTTCCCCAAGCCAAACCCCTGGCCCTTCACTATGTGCCTGGCAAGCACACCTGAGAAGGTGTTCCGCTGTGGCTGCCAGCCTGGTAACAGGTGCCCCAGTGTGCGTAACCTTCTTCCGTCTTCGGACGGTGGTGATTGGTTAAGATTTGGTGTAAGGTTCATGTGCCAACGCCCTGTGCGGGATGAAACCTCTACTGCCCTAGGAATGCCAGGCAGGTACCCCACCTTCGGGTGGGATCTGAGCCTGGGCTAATTGTCTACGGGTGGTTTCATTTCCAATTCTTTCATGTCGGAGTC
B2 yielded an Expression of 1.72E+07.

B3: Bovine picornavirus (nucleic acid)
DNA: TTTTCTCCCCTCCCCCTCCAACTACCTTTTCCCCCTCTTGTAACGCTAGAAGTTTGTGCAAACCGCCTGTAGGGTACTGCAATCCAGCAGTGCATAGGCTAAGCTTTTCTTGTTACCCCACCCCACATTATACTGAGGAGGATTGTGAAATTGTGTTAGTATGGGTTAGTAGCGGTGACCCGGGTAACCCCAACCCAGAAACTCACGGATGAGATGAACAGGACCCCACATGGTAACGTGTGTGTTCGTCTGCCCCGCAAGGTGAGGCCGTGAGAGCTTTGCACGCGAAAACCTTGAAAACCCAAAAGTACCTTGAGCTCTTCGCTATTTTGTGTTTCCTCCAGGACCCTGAATGCGGCTAAACCTAACCCGCGATCCGCACGTAGCAACCCAGCTAGAGTGTGGTCGTAATGCGCAAGTTGCGGGCGGTACCGACTACTTTGGTGTTCCTGTGTTTCCTTTATTTTATTTTGAATTTTTATGGTGACAACAGCTAGAAAATAAGAGTGAAC
Consider B3, for which the Expression is on record as 3.82E+06.

B4: Rhinolophus picornavirus strain Henan-Rf265 (nucleic acid)
DNA: CGGAACGTTGTATGCTCAGGGCGTAGGCACCACCCACGGGTGGTGCCTACACGTGTGGACTAAACCACACACTCTTTTCAGCACTTAGTGCTGCTATCTCTTTTTGTAACTTAGAAGTTTGTACACAATGCGTTAGGGCCACACATCCAGTGTGGTATCGCAAAGCACTTCTGTTTCCCCGGTGCTAGTAGGAGGGTGGCTGCTCCACGGCCACTTGCCGAACCCATCGTTACCCGACTCATTACTTCGCAAAGCCTAGTAACCCAGTTGAAGCAAGCCCGGCGTGTTCCGGTCAGGAAAAACCCCCCCTGGCCAGAAACATGTGATGAGGGTGGGCTATCCCCACTGGTGACAGTGAGCCCTCCCTGCGTTGGCACATGGCCCGATCTGGGCGTGGTTCTTGTGGATGCTGCCGAAGAGCCCCGTGAGCTAGTGTTTATACCGCCGGCCTCGTGAATGCGGCTAACCCTAACCCCGGAGCAGAGGCTACTGAAGCCACAGTAGTCGCTGTCGTAACGAGTAATTCTGGGATGGGACCGACTACTTTCGAGTGTCCGTGTTTCCTTTATTCTTTTATTGTTGTTTATGGTGACAAAC
B4: the Expression is 3.85E+05.

B5: Murine Kobuvirus 1 (nucleic acid, listed as Kobuvirus sp.)
DNA: GTAACTTCAAGTGTGTGTGCTCGTAATCTTGACTCCTGCCGGAATGCCGCCCGGTTCAGTGAACAAACAGCTAGGCAAGTCCCTCCCTTCCCCTGTGGTCGGTTCTCACCGGCCACCATCCCTCCCCCAGCCTGACGTGTTACAGGCTGTGCAAAGCCCCCGCGAAAGCTGCTCACGTGGCAATTGTGGGTCCCCCCTTTGTCAAGACACCGAGTCTTTCTCCCTTAAGGCTAGCCCGGTCCCACGAACGTGGAACTGGCAACTAGTGGTGTCACTACACGCCTCCGACCTCGGACGCGGAGTGCTGTTCCCCAAGCTGTAACCCTGACCCAAGACTGTGCTGCCTGGCAAGCACCGTCTGGGAAGATGTTCCGCTGTGGCTGCCAAACCTGGTAACAGGTGCCCCAGTGTGTGTAGTCTTCCTCCAGTCTCCGGACTGGCAGTCTTGTGTAAAGATGCAGTGTAAGGTTCAAGTGCCAAATCCCTGGAAGGAGTGACCCTCTACTGCCCTAGGAATGCTGTGCAGGTACCCCCAACTTCGGTTGGGGATCTGAGCACAGGCTAATTGTCTACGGGTAGTTTCATTTCCCATCCTCTCTTTTTTGGCATC
B5 returned an Expression of 1.60E+07.

B6: Caprine Kobuvirus 12Q108 (nucleic acid, listed as Kobuvirus sp.)
DNA: GGGGGTGGGGGGGGCCTCGGCCCCCTCACCCTCTTTTCCGGTGGCCACGCCCGGGCCACCGATACTTCCCTTCACTCCTTCGGGACTGTTGGGGAGGAACACAACAGGGCTCCCCTGTTTTCCCATTCCTTCCCCCTTTTCCCAACCCCAACCGCCGTATCTGGTGGCGGCAAGACACACGGGTCTTTCCCTCTAAAGCACAATTGTGTGTGTGTCCCAGGTCCTCCTGCGTACGGTGCGGGAGTGCTCCCACCCAACTGTTGTAAGCCTGTCCAACGCGTCGTCCTGGCAAGACTATGACGTCGCATGTTCCGCTGCGGATGCCGACCGGGTAACCGGTTCCCCAGTGTGTGTAGTGCGATCTTCCAGGTCCTCCTGGTTGGCGTTGTCCAGAAACTGCTTCAGGTAAGTGGGGTGTGCCCAATCCCTACAAAGGTTGATTCTTTCACCACCTTAGGAATGCTCCGGAGGTACCCCAGCAACAGCTGGGATCTGACCGGAGGCTAATTGTCTACGGGTGGTGTTTCCTTTTTCTTTTCACACAACTCTACTGCTGACAACTCACTGACTATCCACTTGCTCTCTTGTGCCTTTCTGCTCTGGTTCAAGTTCCTTGATTGTTTTTGACTGCTTTTCACTGCTTTTCTTCTCACAATCCTTGCTCAGTTCAAAGTC
B6: the Expression was 2.87E+08.

B7: Human enterovirus 109 (nucleic acid, listed as Enterovirus sp.)
DNA: TTTAAAACAGCCTGGGGGTTGTTCCCACCCCCAGGGCCCACTGGGCGTTAGTACTCTGGTATCGCGGTACCTTAGTATGCCTGTTTTATGTCTCCTTTCCCCCGCAACTTTAGAAGTAATCAAGTTATGGCTCAACAGTCGCCACACCCCCAGTGTGGTTCCGAGCAAGCACTTCTGTTCCCCGGTTGCGTCTTATATGCTGTGTGAACGGCAGAAAGGGACAATATCGTTATCCGCTCAACTACTACGGGAAGCCTAGTACCACCATGGATTGACCTGAAAGTTGCGTTCAGCGCACCCCCAGCGCAGCTCAGGCCGATGAGGCTCCGAATACCCCACGGGCGACCGTGTCGGAGCCTGCGTTGGCGGCCTGCCCACGTTGCAAAACGTGGGACGCTCATTTCATGACATGGTGCGAAGAGCCTACTGTGCTAGTTGAGAGTCCTCCGGCCCCTGAATGTGGATAATCCTAACCACTGAACCTACGGGCGCAAACCAGCGTCTGGTAGGCCGTAACGCGCAAGTCGGTGGCGGAACCAACTACTTTGGGTGTCCGTGTTTCCTTTTATCTTTTTGAATGTTTATGGTGACAATTGTTGTGTACAGTTGTTACCATAGTTTGCATTCAGAAATAAACCTAACACTTTCCAATTATTTGTTACA
The molecule B7 displayed an Expression of 4.92E+05.

B8: Human enterovirus C105 (nucleic acid, listed as Enterovirus sp.)
DNA: CCCCTAGGATCCACTGGATGTCAGTACACTGGTATCGTGGTACCTTTGTACGCCTGTTTTATACCCCCTTCCCCGCAACTTTAGAAGCATCAAAAGCACCGCTCAATAGTCACCACACCCCCAGTGTGGTTTCGAGCAAGCACTTCTGTTTTCCCGGTTGCGTCCCATATGCTGTGCAAACGGCAAAAAGGGACAATATCGTTACCCGCTTGTATACTACGGGAAACCTAGTACCACCATTGATTGTGTTGAGAGTTGCGCTCATCACCTTTCCCCGGTGTAGCTCAGGCCGATGAGGCTCAGAATCCCCCACAGGTGACTGTGTCTGAGCCTGCGTTGGCGGCCTGCCCTCGCCTTATGGCGTGGGACGCTTGATACATGACATGGTGCGAAGAGTCTACTGTGCTATGCAAGAGTCCTCCGGCCCCTGAATGTGGCTAATCCTAACCACTGATCCCACGCACGCAAACCAGTGTGTAGTGGGTCGTAACGCGCAAGTCGGTGGCGGAACCAACTACTTTGGGTGACCGTGTTTCCTTTATTACTTATTGAATGTTTATGGTGACAATTGTTTGATTCAGTTGTTGCCATTCTCTACATTCATTTACCCAGCATCAAACCAATTGAACTGTTACA
The molecule B8 yielded an Expression of 5.49E+05.

B9: Porcine Kobuvirus XX (nucleic acid, listed as Kobuvirus sp.)
DNA: CCACCGTTACTTCACTCCACTCCCTCGGGACTGGTTTGGAGGAGCATAACAGGGCTTCCCATCCCTGTTCACCCTCAATACCACCCACCCTTTCCCTCAACCATCCCTATCCACACCCCACTGACTGATTCCCTTGGATTTTGACCTCAGAACGCCTACTTGACCTCCCACTTGCCTTTCCCTTCTCGGATTGCCGGTGGTGCCTGGCGGAAAAAGCACAAGTGTGTTGCAGGCTACCAAACTCCTACCCGACAAAGGTACGTGTCCGCGTGCTGAGTAATGGGATAGGAGATGCCTACAACAGGCTCGCCCATGAGTAGAGCATGGACTGCGGTGCATGTGACTTCGGTCACCACGGGCATAGCATTGCTCACCCGTGAATCAAGTCATTGAGATTCCTCTGACCTCTGAAGTGCACTGTGGTTGCGTGGCTGGGAATCCACGCTTGACCATGTACTGCTTGATAGAGTCGCGGCTGGCCGACTCATGGGTTAAAGTCAGTTGATAAGACAC
Take B9: the Expression worked out at 1.32E+07.
